Results taken from the RNAGym collection of RNA variant scans (doi:10.1073/pnas.2313332121).
This sample holds only a part of the variants without activity.

B1: TPR 5TU (parent)
chain: GGAUCUUCUCGAUCUAACAAAAAAGACAAAUCUGCCACAAAGCUUGAGAGCAUCUUCGGAUGCAGAGGCGGCAGCCUUCGGUGGCGCGAUAGCGCCAACGUUCUCAACUAUGACACGCAAAACGCGUGCUCCGUUGAAUGGAGUUUAUCAUG

Variants of: B1
Test: polymerase ribozyme fitness, log enrichment relative to wild type (log ratio); higher = more active; in vitro selection for triplet polymerase activity
How it was run: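 Mutant libraries were PCR-built and transcribed for each subunit of a heterodimeric triplet polymerase ribozyme and selected for one round in triplicate at −7 °C, frozen, before gel excision of extended constructs and streptavidin-bead capture. Input and output libraries were Illumina-sequenced, keeping genotypes with ≥10 input reads and ≥1 read per output. Fitness is a logarithmic ratio of genotype to wild-type enrichment, in base 2, using inverse-variance-weighted replicate averages.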

Row | Variant | polymerase ribozyme fitness (log ratio)
1 | G11A U56A C76U U111C U148A | ≤ -4.2
2 | U9A A39U U61A C76U C93A A120U G141A | ≤ -4.2
3 | C10G A30U C43G G58A G68A G80A A113C | ≤ -4.2
4 | C10G A52C G70U C85G G117U | ≤ -4.2
5 | U9G G59C G92C A107G A115G | ≤ -4.2
6 | G11A G34C U56A C57U C99G A142C | ≤ -4.2
7 | U9G U44G G50A U82C C95U U139G | ≤ -4.2
8 | U9A C76A C85U G100C U104G A115U | ≤ -4.2
9 | G11U A40U G84A A110G | -3.56
10 | C10A C93U G140C | ≤ -4.2
11 | U9G G25C C27U C35U U102A A147C | ≤ -4.2
12 | U9G C27G U55A C57A G59A | ≤ -4.2
13 | C10A A47G A64G G81U G84U | ≤ -4.2
14 | C10G C75U | -3.87
15 | U9A C149G | ≤ -4.2
16 | C10G C54U U55A C79G C93U A98G C116G A122U | ≤ -4.2
17 | U9G U55A C96G C116A | -4.14
18 | C10G C18G U55C C57U U61A | -4.15
19 | G11U C54U C72A U90G G92U U111G U148G | ≤ -4.2
20 | U9A A26U G92U A142U | ≤ -4.2
21 | U9G A21U A24G C72U A147C | ≤ -4.2

Row | Variant | polymerase ribozyme fitness (log ratio)
22 | C10A A29C U44G G58A A60G A97U G141C | ≤ -4.2
23 | C10G U13G A16C U56A G92C C105A C114U | ≤ -4.2
24 | U9G G58A C75U G83U C95A C131A | ≤ -4.2
25 | C10A C32A C54U C116A G143A | ≤ -4.2
26 | C10A A37U C79A C85U C87A | ≤ -4.2
27 | C10A C14G A19U A30C C93U | ≤ -4.2
28 | G11A U82A | -1.4
29 | G11A C85U | -1.56
30 | G11A C85A | -2.76
31 | G11A A26U G48A U109C A147G | ≤ -4.2
32 | G11A A39U | -3.28
33 | C10U A39G C54G C63A G70C C93U G141A | ≤ -4.2
34 | U9G A17G A41G U53A U77G G84U C116A G141A A147G | ≤ -4.2
35 | C10G G68C G83U A107C | ≤ -4.2
36 | G11C C63U G83A A115U U135A U146C G152U | ≤ -4.2
37 | U9A A23U C32G C54G G92U U101C G140U | ≤ -4.2
38 | G11C C57G U82A G83U G141U | -2.65
39 | U9C A12C A20G U53A A73U G92U C114A A121U G140A U151A | ≤ -4.2
40 | C10G U146G | -4.19
41 | G11U G42C G68A C85U G128U C132G U139G U148A | ≤ -4.2
42 | C10G A29C A30U G48U U55A A89U C93G G128U | ≤ -4.2

Row | Variant | polymerase ribozyme fitness (log ratio)
43 | U9C C10G C35U G94A C103A C108U A115U G140U | ≤ -4.2
44 | C10U A39C C57A G59C A66U G67U G81A C85G C105A U135C G140C G143C | ≤ -4.2
45 | C10U A40G G50U C79G C99U C108G G117A | ≤ -4.2
46 | C10A A66U G81A G94U U134A | ≤ -4.2
47 | G11U A30U G65U G70C C85G A91U C93A A150U | ≤ -4.2
48 | G11U C69U U134C | -1.33
49 | C10G A20C U33G C93A G94U C96G C114U U145A | ≤ -4.2
50 | C10G U61A C93A U139A | ≤ -4.2
51 | G11U A16C A24G G58C C87A C99U | ≤ -4.2
52 | U9A G25C C38U G71U U135C A147G | ≤ -4.2
53 | U9C A17C C54U A120G | ≤ -4.2
54 | C10U A12C G34A G92C | -4.16
55 | G11C A20G G34U A137U | ≤ -4.2
56 | U9G U61A C75U C85U G124C | ≤ -4.2
57 | G11U A23U G68A U130G U135C | ≤ -4.2
58 | C10G G42U C63U C95A C123G | ≤ -4.2
59 | G11A C54G G94A | -2.96
60 | C10U C27G C54U C95G C96G A110G | ≤ -4.2
61 | C10U G42C U53A A66G A91G A110C | ≤ -4.2
62 | U9G A52G G71A A73G G128U G143U | ≤ -4.2
63 | C10U A22G A49G A142C | ≤ -4.2

Row | Variant | polymerase ribozyme fitness (log ratio)
64 | C10G U144C | -3.87
65 | C10A A12G U53A U55A G92C G94C C105U | ≤ -4.2
66 | G11A A110G | -3.76
67 | C10G C32A G58U G59U U130C | ≤ -4.2
68 | G11A A12U C51G U55G G62C U90C C108G | ≤ -4.2
69 | U9A U13A A29G C96A C132A | ≤ -4.2
70 | C10U G25U C32A C76A G83U G88C C93G | ≤ -4.2
71 | U9C G84A C103U | ≤ -4.2
72 | U9G U13G A22C A28U A41C C76U G92A U148A | ≤ -4.2
73 | G11A A26G U55A C87A G124C G143C U148C | ≤ -4.2
74 | C10G A20G G50U G59C C87U | ≤ -4.2
75 | C10G C38U G50A U90A U127C G128U U145A | ≤ -4.2
76 | G11U A21U G74C G92U | ≤ -4.2
77 | C10U G94A | -2.69
78 | G11U A39U C57U G70A U101G | ≤ -4.2
79 | U9G U33A G50A | -4.2
80 | G11C G50A U56A G83U C93A U127C U135C | ≤ -4.2
81 | G11A G48A A52C G83A C87U A119C G124C | ≤ -4.2
82 | C10G A21U A91G | ≤ -4.2
83 | G11C A23U G48C C79A U82G G94U A142U | ≤ -4.2
84 | C10G C14U A28U U53A A122C | ≤ -4.2
